Experimental data taken from the Human Domainome abundance scans (Beltran et al. 2025).
± gives the uncertainty stated by the source.

B1: Far upstream element-binding protein 1, residues 184 to 257; numbered along this chain, Q96AE4 (parent)
chain: GNAVQEIMIPASKAGLVIGKGGETIKQLQERAGVKMVMIQDGPQNTGADKPLRITGDPYKVQQAKEMVLELIRD

Variants of: B1
Experiment: abundance fitness (aPCA) (normalised: wild type 0, dead -1); higher = more abundant; growth selection in yeast, the domain comes from the species named
Settings: Homo sapiens

Variant	abundance fitness
GNAVQEIMIPASKAGLVIGKGGETIKQLQERAGVKMVIIQDGPQNTGADKPLRITGDPYKVQQAKEMVLELIRD [M38I]	-0.036 ± 0.048
GNAVQEIMIPASKAGLVIGKGGETIKQLQERAGVKMVLIQDGPQNTGADKPLRITGDPYKVQQAKEMVLELIRD [M38L]	0.035 ± 0.031
GNAVQEIMIPASKAGLVIGKGGETIKQLQERAGVKMVPIQDGPQNTGADKPLRITGDPYKVQQAKEMVLELIRD [M38P]	-0.287 ± 0.04
GNAVQEIMIPASKAGLVIGKGGETIKQLQERAGVKMVRIQDGPQNTGADKPLRITGDPYKVQQAKEMVLELIRD [M38R]	-0.444 ± 0.029
GNAVQEIMIPASKAGLVIGKGGETIKQLQERAGVKMVSIQDGPQNTGADKPLRITGDPYKVQQAKEMVLELIRD [M38S]	-0.205 ± 0.034
GNAVQEIMIPASKAGLVIGKGGETIKQLQERAGVKMVTIQDGPQNTGADKPLRITGDPYKVQQAKEMVLELIRD [M38T]	-0.21 ± 0.035
GNAVQEIMIPASKAGLVIGKGGETIKQLQERAGVKMVVIQDGPQNTGADKPLRITGDPYKVQQAKEMVLELIRD [M38V]	-0.007 ± 0.031
GNAVQEIMIPASKAGLVIGKGGETIKQLQERAGVKMVWIQDGPQNTGADKPLRITGDPYKVQQAKEMVLELIRD [M38W]	-0.032 ± 0.034
GNAVQEIMIPASKAGLVIGKGGETIKQLQERAGVKMVYIQDGPQNTGADKPLRITGDPYKVQQAKEMVLELIRD [M38Y]	-0.094 ± 0.057
GNAVQEIMIPASKAGLVIGKGGETIKQLQERAGVKMVMCQDGPQNTGADKPLRITGDPYKVQQAKEMVLELIRD [I39C]	-0.051 ± 0.042
GNAVQEIMIPASKAGLVIGKGGETIKQLQERAGVKMVMDQDGPQNTGADKPLRITGDPYKVQQAKEMVLELIRD [I39D]	-0.105 ± 0.045
GNAVQEIMIPASKAGLVIGKGGETIKQLQERAGVKMVMEQDGPQNTGADKPLRITGDPYKVQQAKEMVLELIRD [I39E]	-0.001 ± 0.036
GNAVQEIMIPASKAGLVIGKGGETIKQLQERAGVKMVMFQDGPQNTGADKPLRITGDPYKVQQAKEMVLELIRD [I39F]	0.035 ± 0.061
GNAVQEIMIPASKAGLVIGKGGETIKQLQERAGVKMVMGQDGPQNTGADKPLRITGDPYKVQQAKEMVLELIRD [I39G]	-0.028 ± 0.027
GNAVQEIMIPASKAGLVIGKGGETIKQLQERAGVKMVMHQDGPQNTGADKPLRITGDPYKVQQAKEMVLELIRD [I39H]	-0.095 ± 0.05
GNAVQEIMIPASKAGLVIGKGGETIKQLQERAGVKMVMKQDGPQNTGADKPLRITGDPYKVQQAKEMVLELIRD [I39K]	0 ± 0.041
GNAVQEIMIPASKAGLVIGKGGETIKQLQERAGVKMVMLQDGPQNTGADKPLRITGDPYKVQQAKEMVLELIRD [I39L]	-0.008 ± 0.032
GNAVQEIMIPASKAGLVIGKGGETIKQLQERAGVKMVMMQDGPQNTGADKPLRITGDPYKVQQAKEMVLELIRD [I39M]	0.014 ± 0.04
GNAVQEIMIPASKAGLVIGKGGETIKQLQERAGVKMVMNQDGPQNTGADKPLRITGDPYKVQQAKEMVLELIRD [I39N]	0.014 ± 0.051

Variant	abundance fitness
GNAVQEIMIPASKAGLVIGKGGETIKQLQERAGVKMVMPQDGPQNTGADKPLRITGDPYKVQQAKEMVLELIRD [I39P]	-0.061 ± 0.035
GNAVQEIMIPASKAGLVIGKGGETIKQLQERAGVKMVMQQDGPQNTGADKPLRITGDPYKVQQAKEMVLELIRD [I39Q]	-0.032 ± 0.04
GNAVQEIMIPASKAGLVIGKGGETIKQLQERAGVKMVMRQDGPQNTGADKPLRITGDPYKVQQAKEMVLELIRD [I39R]	0.006 ± 0.027
GNAVQEIMIPASKAGLVIGKGGETIKQLQERAGVKMVMSQDGPQNTGADKPLRITGDPYKVQQAKEMVLELIRD [I39S]	-0.02 ± 0.03
GNAVQEIMIPASKAGLVIGKGGETIKQLQERAGVKMVMTQDGPQNTGADKPLRITGDPYKVQQAKEMVLELIRD [I39T]	-0.088 ± 0.036
GNAVQEIMIPASKAGLVIGKGGETIKQLQERAGVKMVMVQDGPQNTGADKPLRITGDPYKVQQAKEMVLELIRD [I39V]	0.006 ± 0.031
GNAVQEIMIPASKAGLVIGKGGETIKQLQERAGVKMVMWQDGPQNTGADKPLRITGDPYKVQQAKEMVLELIRD [I39W]	-0.096 ± 0.036
GNAVQEIMIPASKAGLVIGKGGETIKQLQERAGVKMVMYQDGPQNTGADKPLRITGDPYKVQQAKEMVLELIRD [I39Y]	-0.08 ± 0.05
GNAVQEIMIPASKAGLVIGKGGETIKQLQERAGVKMVMICDGPQNTGADKPLRITGDPYKVQQAKEMVLELIRD [Q40C]	-0.024 ± 0.049
GNAVQEIMIPASKAGLVIGKGGETIKQLQERAGVKMVMIDDGPQNTGADKPLRITGDPYKVQQAKEMVLELIRD [Q40D]	-0.008 ± 0.05
GNAVQEIMIPASKAGLVIGKGGETIKQLQERAGVKMVMIEDGPQNTGADKPLRITGDPYKVQQAKEMVLELIRD [Q40E]	-0.067 ± 0.037
GNAVQEIMIPASKAGLVIGKGGETIKQLQERAGVKMVMIFDGPQNTGADKPLRITGDPYKVQQAKEMVLELIRD [Q40F]	-0.027 ± 0.052
GNAVQEIMIPASKAGLVIGKGGETIKQLQERAGVKMVMIHDGPQNTGADKPLRITGDPYKVQQAKEMVLELIRD [Q40H]	-0.146 ± 0.057
GNAVQEIMIPASKAGLVIGKGGETIKQLQERAGVKMVMIIDGPQNTGADKPLRITGDPYKVQQAKEMVLELIRD [Q40I]	-0.147 ± 0.065
GNAVQEIMIPASKAGLVIGKGGETIKQLQERAGVKMVMIKDGPQNTGADKPLRITGDPYKVQQAKEMVLELIRD [Q40K]	-0.025 ± 0.041
GNAVQEIMIPASKAGLVIGKGGETIKQLQERAGVKMVMILDGPQNTGADKPLRITGDPYKVQQAKEMVLELIRD [Q40L]	-0.076 ± 0.031
GNAVQEIMIPASKAGLVIGKGGETIKQLQERAGVKMVMIMDGPQNTGADKPLRITGDPYKVQQAKEMVLELIRD [Q40M]	-0.085 ± 0.041
GNAVQEIMIPASKAGLVIGKGGETIKQLQERAGVKMVMIPDGPQNTGADKPLRITGDPYKVQQAKEMVLELIRD [Q40P]	-0.052 ± 0.035
